The values below come from the DeepSol protein solubility set.

The nature of the series: soluble on expression in E. coli; label from the status in PepcDB or PDB records.
Take “MGSDKIHHHHHHMPEFRKDPIIKRWVIIATERAKRPHDFARTKVEEVREGFCPFDYGNEHTTPPEIFAFRPADTEPNTPGWWVRVVPNKFPAVDPNAPLRKYGRGMYDAAMGFGYHDVVVETPDHNSHLAVMDYKNVEEVIWAYKIRYEQLMKDERIKYILIFKNHGRDAGASLSHPHSQIIALPIMPKRVQEELDGSKEYYEYKERCPFCDIIDEEKRERERIVEENDHFIALEPFAARFPFETWILPKRHMNSFHLISEDEVGSLAKILKNVLYRIYAALDNPPYNLLIHTAPTSLEGKDYYHWHIEIFPRLTKVAGFEWGTGFYINTVPPEDAARYLREVSLEQV”: the “soluble on expression in E. coli” value was “not soluble”. Under “GFFDLRNELPMNCRARRKVDLSDGALKDIARIDAIWSEQMAKFPDAFLFGEWSIADAMYAPVALRFETYGIELSQGAKAYQQKVLASHAVQKWLAEASQETDIVEEDEAGVEV” stands “not soluble”; under “MIHYKIAPSPLDHEWHILLKFTQDNDFPIEISLPNWVPGSYLIRDFSRHITSIHASCNGTSMPLEQIAKNRWHTAAVRGEWQIRYTVYAFDLSVRGSFLTTERGFFDGSCLFLKVEGTETLPHRLELTGIPPEWRIATTLPETGRLVFQTASYDELIDRPVEMGLIEFLDFEAAGIPHTIALNGIYPDFDRDRLVSDIKKICETELAMFSSPAPFEKYLFLLHVGDHIYGGLEHTDSTALLADRHSLPPYGMTDADDAYTTLLGLFSHEYFHAWNVKSIKPAAFAPYDLDKENYTEQLWAFEGITSYYDDLFLARSRTISPEFYLNLLAQGITRVQQTRGRLRQTLAESSFTAWNKFYKPDENSPNAIVSYYQKGALAALCLDLIIRNRSNGRHSLDTVMDKLYREWRDTHSGIPEKHWQIRCQEITGLDLTDFFQTALYSTEDLPLAECLATTGVKLTFLPLPRQHGGGYAEHIFPIPPTGDFGARFKQNADHIVLTHVFNGGSAESAALCPQDKIIALDGYACTDFAAQWARYHVRAKINIHFFRAGILRQTVLTVQATAADTAILHITDRNLLENWLFGLEHHHHHH”, “not soluble”.

On to “MPILQELRLGKRISRDISLADLYQEWIELKILPSSRSEETKKKYLLRKNTIERLFGNKKVTQIRASEYQRIMNKYGQTVGRNFLGRLNTGIHQSIQMAIADKVLIDDFTQHVELFSSKEQQMTLEHHHHHH”, for which the “soluble on expression in E. coli” value was “not soluble”. To “MHHHHHHSSGVDLGTENLYFQSMGFETLVVTSEDGITKIMFNRPKKKNAINTEMYHEIMRALKAASKDDSIITVLTGNGDYYSSGNDLTNFTDIPPGGVEEKAKNNAVLLREFVGCFIDFPKPLIAVVNGPAVGISVTLLGLFDAVYASDRATFHTPFSHLGQSPEGCSSYTFPKIMSPAKATEMLIFGKKLTAGEACAQGLVTEVFPDSTFQKEVWTRLKAFAKLPPNALRISKEVIRKREREKLHAVNAEECNVLQGRWLSDECTNAVVNFLSRKSKL” belongs “soluble”. Under “MGSDKIHHHHHHMNYLVYQSYGSKDILNECCYSILSLLKHGINKNETRIVIYTDQPEYFSFLPAATLEFVQMSADIIADYKGVHAFVHRLKIKILQDAVTRFQGTILYVDSDIYFLKSIEPLFASISKTNLLMCNNEGRIHTGGNRIFEKFSAFIKKNTDYLKQHHIPIPYDITMWNAGVIGFLSTEKELLEKVLYTNDTIYNKFQSHVVEQLSFSYQLQKQGTLNAATDYLYHYWNFKEFRIVLAEFFKYHLNRGSVEQMIQDIDSIRPDVLIKPKLEYETLPFLKKNIRKLGGKKNRWKFPAYTIGQAATI” stands “not soluble”. To “MLHFIDSSESEDDLDELPRHLPPVIRRLAPLRHATSQYNLRSTGSTSSDSSTASENDKCSDFSSLKSRRASCIELNKEDEFKVMAADKLLMAMENMKHATSSQAIRWRTTSTESLPGIIKSNRRHSKGPLELIQGLMAKKAAVGRPAKFKNLGVVGPPTLISSTVSLHEISGFVRRDRFWGAETESLFSQFEV” belongs “not soluble”; to “MHLRLRTKNGLITITVSQQCTIRELSEEIERKTGIEVAKQKILYGFPQRELRADADKPVESVLQSGDSLTVDKLSAETEQERTVESSPASTENAYVRRKVPDDNSCLFHAICYVFRSGSVAQLRHIISETVRLNPDLYTEAFLGKSNHEYSRWILLPETWGGAIELSILSKYFQTEISVFDIQTLRLDRYGEAENYEERVFLLYDGIHYDPIARAFLGASREYDVTVFKIWDNEALVGAKSVAEEANKNRQYTDLASFTLMCRNCGAKLKGETSAVEHAKQTGHTNFTEA”, “not soluble”. “GIDPFTMAAYTIVKEEESPIAPHRLFKALVLERHQVLVKAQPHVFKSGEIIEGDGGVGTVTKITFVDGHPLTYMLHKFDEIDAANFYCKYTLFEGDVLRDNIEKVVYEVKLEAVGGGSKGKITVTYHPKPGCTVNEEEVKIGEKKAYEFYKQVEEYLAANPEVFA”: the “soluble on expression in E. coli” value is given as “soluble”. With “MGSDKIHHHHHHMMFEDTHDEHVLLTPGPTPIHPRAQKALIRSMLGHMDPEVFALNSEIQRDLREMYGTEPEGFTALLAGTGSLGMEAGFANLVEAGDEVLVCANGSFGRRMAEMAARYGAKVRLVTAPLGEAIKPADVAAHLDDDISMVAVVHGETSTGVLNPVPEIAELVRGSGALLTVDAVTTAGMEPFHMQQWGVDYAYTGAQKCLSAPPGLAPVAISERAFSRFAARRTQTPLWYCDFEGLRDYWVNHTYHHTVPVNLHFAFHAALRAALEEGLEARQARVRLMGRVIERTLAPLGFSHYVRRPEDRLPTVLALRLPEGFDDAGLRQALRQREISVTGGLGPTAGVIWRLGLMGESARPGPYHRLMTELEDLLGAPGLLDRYEAVLAEEQRGELALA”, the “soluble on expression in E. coli” value is on record as “not soluble”. Under “MPKDKLVITVSGLAGSGTTTLSKKIAEHYGLKHVYAGLIFRQMAKEKGMSLEEFQKYAELHPEIDREVDRRQIEAAKEGNVVIEGRLAGWMVKNADLKIWLDAPIRVRAERVAKREGISVEEAFMKIAEREMQNRKRYLNLYGIDINDLSIYDLIINTSKWSPEGVFAIVKAAIDHLDPVGDAGSKKEKEVG” stands “soluble”; under “MGSDKIHHHHHHMVMTVGDSRVGKSTVIKLLLEMYQIQGKRLKVYDHDNRDRFLAYKDLVCIEKIDFFNTRTDRIFNDLIVDSLDIILVDMPGQYLDKICQYIIQSELLGALAEYGWSLTFVQPISHRTDCIDYLSQIVQTATNNANYVVVKNYHFAPEFREYEQTMAKNLLMIGGTEIELTALHRNHYQAMEKAGIPYSQVCQDISMILFLRSYIYQWIKKFHDSVMDNDLAVKYLGLD”, “not soluble”; under “MAGDPMGQKTQQDIVAGLDEKAKEYTSYKAKAKMTIETGSEPQVYNVEIWHKKPSLYRVYLENPKKDQNQVILRNENGVFVLTPSLNKSFRFQSDWPNNSSQVYLFESLVKDVQNDSDAVFTAKEKKYVFETKTNYQHNKMLPTQEITFNKKDMSPSSVKVMDTDRKVMVKVEFSSFEFNKQFDKESFDEKKNMTLSQMDVATSAKPSDTFAVKTPLELPLGVKLLEEKDISTEDGKRIIMTYGGEKSFTLIQEKAQIAKASSSVTLNGEPVNLGYTIGALSDASLSWTYDGVDYLLSSKDLSKEEMVTVAKSMQGQSSKLEHHHHHH”, “soluble”. Turning to “MLTCTVDTQFGRLTLREEAGALVSVSWGSAAREDASELLQRASLQVSEYDQGARQQFDLPVRIRGSAFQRAVCDAICAIPFGDTCTYGDIARALGVPAQAVGQACGANPIPIIIPCHRVMGAKGLTGFSGVGGVETKVALLRHEGAAGLLILEHHHHHH”, the “soluble on expression in E. coli” value was “not soluble”.

Regarding “MKQPPLEDQYQMFGSIALSAFGAELLRHSLLPELLGKDAASLLYWAGKQLARRYPLGTLDDVAVFFERAGWGELSTGEERNDELYIELSGPIIAARFSLYGSCSFQLEAGFLAQQIEQQKRFVTEAVELPPKRDGKARILVKWDRKQAIE”, the “soluble on expression in E. coli” value is on record as “not soluble”. Under “MGSDKIHHHHHHMNDYKALRTFLLAAEKRNFAQVARELDMTPAAVTRAIAALEAELGVQLFVRTTRQVSLTTDGAIFAAQLQPAVKTIEDARREVMNAHKADEGRLRISAPTWFGKAVLPPILSAFKERYPKMSFEISLSDGLVNIVDDDYDLAIRISSQPSDKFTIWRKIRVVPRILVAAPGSRFVDMQHPNELTPDDCLAYSGDSRRENWVLSDGGSSITISAGRAFSANNGEVLADIAADGAGVAMLPGFHIFEHLRTGRLVHVFKGWAPPDLWLTLYYPPYQALPPRIASFSKFFEEQVPAHMVMLD” stands “not soluble”; under “MVVVRLPKEIEERLTALARKTGRSKSYYVRQALLEYLDDLEDYYLAVERLEERLPGIPLDEVERRLGLSD”, “soluble”; under “MGSDKIHHHHHHMENKEVIIIGAGAAGVGMGVALKDFGINNFAILERKQVGNSFIKWPEQTRFITPSFTSNGFGMPDLNAIAIDTSPSYTLGEERLSGKDYAKYLQLVSEEYKLPIKTNCKVQSIKKEKTGYLLETTKGFIYAEYVIFAMGEFSFPNKSSIKGAYKNSLHYGEINSWIEIKGDKQTIIGGNESAIDAAIELAKLGKRVTIYTDTLGLNIRDADPSKRLAPRTRQRFFDLRVNQKKLDSIKIYTTTKVKKIEKKSTSYILITENGKSLPVENIPILCTGFKNGTKSITASLFKYKENGEVLLNDFDESTIAKNIFLTGPNVRKGNTIFCYIYKFRQRFAVIANEIARRKHITIDEKKLSYYKNQSFYLDGCSGCEVRCSC”, “not soluble”. To “MSLIPATLLLVEDDPDQRIIMQRKLQQQGYKVICAENGEEAVDLYNNNTIDLVLMDAQLPGMDGFEACFLITHTETGSRCPVMMITSLENSESVDRAFQVGAEEYVPKPIHWKVLMQRIRRQIKSRRVHQEGHHHHHH” belongs “soluble”. Under “MGSDKIHHHHHHMEEHFLYVPYYNRTRRIRVLLPKDYYTDTWDSYAVLYMHDGQNIFYSKESYSGYSWKIIPTIKHHKEFPKIIIVGIDNSGVDRLDEYGPWRTDVGSSPEIKKCGGKGMEYGKWVVEIVKPFIDQHYRTKPQKEHTLLAGSSMGGIITAYMGSAYPQIFGHLGVFSLASWFSEKDFLHFIHHNPIDKNSKVFIQVGTKEGDDVDSLFISNMNQAYIDCTLHYYQALLRTGHPLDNIRLRMMANEIHHEKHWADHFVEFLHFSLL” stands “not soluble”. As to “MTHDNKLQVEAIKRGTVIDAIPAQIGFKLLSLFKLTETDQRITIGLNLPSGEMGRKDLIKIENTFLSEDQVDQLALYAPQATVNRIDNYEVVGKSRPSLPERIDNVLVCPNSNCISHAEPVSSSFAVRKRANDIALKCKYCEKEFSHNVVLAN”, the “soluble on expression in E. coli” value is on record as “soluble”. Under “MSQESSVLSESQEQLANNPKIEDTSPPSANSRDNSKPVLPWDYKNKAIEIKSFSGYKVNFTGWIRRDVREERQRGSEFTASDVKGSDDKATRKKEPADEDPEVKQLEKEGEDGLDS” stands “soluble”; under “MGHHHHHHSHMANSAGSMANSAGSMFDGISLTEHQRQQMRDLMQQARHEQPPVNVSELETMHRLVTAENFDENAVRAQAEKMANEQIARQVEMAKVRNQMYRLLTPEQQAVLNEKHQQRMEQLRDVTQWQKSSSLKLLSSSNSRSQ”, “not soluble”.

On to “MNELVSIITPCYNSAATIRETIRSVIAQSYVNWELLIIDDCSNDDSVKIIMEFMDTDSRIYYLKTEHPSGGPTLPRNVGIQAAKGRFIAFLDSDDIWLPNKLSTQLPLFINDNVAIVYSDYEKISEEGNRTGRIVKSDPYHHYKSLLCGNELGCLTVVYDTQKIGKRYFKFIGHEDYNLWLDILKEGFIAINTNICLALYRIRKGSVSSNKLRVIKWIWHIYRVEQKKTIWLSLYYSLSDLNKSLFKYLKLEHHHHHH”, for which the “soluble on expression in E. coli” value is reported as “soluble”.
